Results on 4 molecules are retold here after PMC3264566, “Structure-Function Studies of DNA Binding Domain of Response Regulator KdpE Reveals Equal Affinity Interactions at DNA Half-Sites”.

What all share (conditions): protein: recombinant; tags: N-terminal His-tag removed with TEV; chain copies: 2; blunt
Series [1] has as its target T1, KdpE DBD (KdpEDBD) (Escherichia coli str. K-12 substr. …, UniProt P21866 124-225).
T1 sequence: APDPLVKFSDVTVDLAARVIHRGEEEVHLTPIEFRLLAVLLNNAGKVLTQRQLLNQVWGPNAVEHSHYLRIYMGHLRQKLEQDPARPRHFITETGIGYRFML
Description: EMSA; minimal 21 bp; AUC: 50 mM HEPES pH 7.4, 150 mM KCl, 1 mM EDTA, 20 C, DNA 0.5 uM in SV; EMSA: 10 mM Tris pH 8.0, 50 mM NaCl, 5% glycerol, 0.1% Triton X-100, 10 mM DTT, 1 mM EDT.

For series [2], the target named is T1, KdpE DBD (KdpEDBD). Description: AUC sedimentation velocity (Sw isotherm); two-site model, Kd1; AUC: 50 mM HEPES pH 7.4, 150 mM KCl, 1 mM EDTA, 20 C, DNA 0.5 uM in SV; EMSA: 10 mM Tris pH 8.0, 50 mM NaCl, 5% glycerol, 0.1% Triton X-100, 10 mM DTT, 1 mM EDT.
For series [3], the target named is T1, KdpE DBD (KdpEDBD). Description: AUC sedimentation equilibrium; first binding event, ABB model (macroscopic; upper limit); AUC: 50 mM HEPES pH 7.4, 150 mM KCl, 1 mM EDTA, 20 C, DNA 0.5 uM in SV; EMSA: 10 mM Tris pH 8.0, 50 mM NaCl, 5% glycerol, 0.1% Triton X-100, 10 mM DTT, 1 mM EDT. (In general: A gel shift assay detects complexes by their altered migration in electrophoresis.)

Series [4] concerns the target T1, KdpE DBD (KdpEDBD). The series is described as follows: AUC sedimentation equilibrium; S2 half-site only, 1:1, AB model; AUC: 50 mM HEPES pH 7.4, 150 mM KCl, 1 mM EDTA, 20 C, DNA 0.5 uM in SV; EMSA: 10 mM Tris pH 8.0, 50 mM NaCl, 5% glycerol, 0.1% Triton X-100, 10 mM DTT, 1 mM EDT.
The target in series [5] is T1, KdpE DBD (KdpEDBD). The series is described as follows: AUC sedimentation equilibrium; S1 half-site only, 1:1, AB model; AUC: 50 mM HEPES pH 7.4, 150 mM KCl, 1 mM EDTA, 20 C, DNA 0.5 uM in SV; EMSA: 10 mM Tris pH 8.0, 50 mM NaCl, 5% glycerol, 0.1% Triton X-100, 10 mM DTT, 1 mM EDT.

Residue numbers refer to the chain shown, from its start.

B1: kdpFABCBS 5'del1,3'del8 (21 bp) (dsDNA)
DNA 1: ATTTTTATACTTTTTTTACAC
DNA 2: GTGTAAAAAAAGTATAAAAAT
B1: in series [1], the binding result was “binds”.

B2: kdpFABCBS 30 bp (dsDNA)
DNA 1: CATTTTTATACTTTTTTTACACCCCGCCCG
DNA 2: CGGGCGGGGTGTAAAAAAAGTATAAAAATG
Regarding B2, the Kd – broadly, the free concentration of one partner at which half of the binding sites on the other are occupied at equilibrium, for simple one-to-one binding – turned out to be 90 nM in series [2] and 80 ± 25 nM in series [3].

B3: kdpFABCBS-1 (dsDNA)
DNA 1: B2 DNA 1 with T5C, T6C
DNA 2: B2 DNA 2 with A25G, A26G
As for B3, the Kd in series [4] amounted to 200 ± 100 nM.

B4: kdpFABCBS-7 (dsDNA)
DNA 1: B2 DNA 1 with T17C, T18C
DNA 2: B2 DNA 2 with A13G, A14G
Regarding B4, in series [5], the Kd came to 350 ± 100 nM.
